The text below walks through data of PMC4930246 (Structure (London, England : 1993), 2015).

The data set “AUC” deals with the molecule itself. The data set is described as follows: AUC.
The target in a further data set is T1, FLRT3-LRR F160A (mouse, UniProt Q8BGT1 29-386, F160A).
T1 sequence (looked up): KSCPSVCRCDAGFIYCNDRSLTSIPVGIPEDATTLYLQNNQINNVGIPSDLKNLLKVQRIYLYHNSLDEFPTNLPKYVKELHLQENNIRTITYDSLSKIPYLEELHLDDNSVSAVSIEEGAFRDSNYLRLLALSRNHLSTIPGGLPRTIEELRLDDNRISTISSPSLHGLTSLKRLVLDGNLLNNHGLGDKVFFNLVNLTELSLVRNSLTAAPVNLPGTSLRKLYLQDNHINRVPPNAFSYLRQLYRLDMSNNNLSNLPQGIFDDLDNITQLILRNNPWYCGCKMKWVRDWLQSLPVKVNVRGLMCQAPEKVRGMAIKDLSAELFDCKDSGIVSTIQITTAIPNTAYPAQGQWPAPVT
The data set is described as follows: ITC.

In the next data set the target is T2, FLRT3-LRR R117T (mouse, UniProt Q8BGT1 29-386, R117T, additional N-linked glycosylation at Asn115).
T2 sequence (looked up): T1 sequence (looked up) with R89T, A132F
Kind of data set: ITC. For orientation: ITC needs no label: the signal is the heat of the interaction.

Residue numbers refer to the chain shown, from its start.

B1: FLRT3-LRR (leucine-rich repeat domain of mouse FLRT3, amino acids 29-386) (domain or fragment, UniProt Q8BGT1 29-386, looked up)
chain: T1 sequence (looked up) with A132F
modifications: N-linked glycosylation (three predicted sites; one N-Acetyl-glucosamine modelled on Asn226)
Take B1: in “AUC”, binding was characterised by a dissociation constant (Kd) of 43300 nM and the “stoichiometry N” value is 2.

B2: LPHN3-OLF (olfactomedin domain of mouse latrophilin 3, amino acids 199-495) (domain or fragment, UniProt Q80TS3 199-495, looked up)
chain: KVFLCPGLLKGVYQSEHLFESDHQSGAWCKDPLQASDKIYYMPWTPYRTDTLTEYSSKDDFIAGRPTTTYKLPHRVDGTGFVVYDGALFFNKERTRNIVKFDLRTRIKSGEAIIANANYHDTSPYRWGGKSDIDLAVDENGLWVIYATEQNNGKIVISQLNPYTLRIEGTWDTAYDKRSASNAFMICGILYVVKSVYEDDDNEATGNKIDYIYNTDQSKDSLVDVPFPNSYQYIAAVDYNPRDNLLYVWNNYHVVKYSLDFGPLDSRSGPVHHGQVSYISPPIHLDSELERPPVRGI
With B2, the Kd came out at 1000 nM in the data set with FLRT3-LRR F160A and 27 nM in the data set with FLRT3-LRR R117T.

In general, Kd refers to the constant that tells how readily two partners part at equilibrium. By stoichiometry N is commonly meant the number of molecules, sites or subunits per partner or assembly.
